Stoichiometry N data for one substance are collected here from PMC9916421.

For the experiment, the target named is DrMoaE (MoaE of Deinococcus radiodurans, large subunit of MPT synthase) (Deinococcus radiodurans). The experiment is described as follows: SEC; gel filtration profiles of DrMoaE and DrMoaER110A; standard curve from aprotinin, RNaseA, chymotrypsinogen A, ovalbumin and BSA. In general terms: Size exclusion chromatography separates by hydrodynamic size, large species first.

As for “DrMoaE (MoaE of Deinococcus radiodurans, large subunit of MPT synthase) (natural protein)”, the stoichiometry N (commonly the number of molecules, sites or subunits per partner or assembly) was 2.
